The record followed here is the RNAGym collection of RNA variant scans (doi:10.1073/pnas.2313332121).

The labels stand for the following.
B1: TPR t1 (parent)
chain: GACCAAUCUGCCCUCAGAGCUCGAGAACAUCUUCGGAUGCAGAGGAGGCAGGCUUCGGUGGCGCGAUAGCGCCAACGUCCUCAACCUCCAAUGCAUCCCACCACAUGAUGAUGCCUGAAGAGCCUUGGUUUUUUG

In this series the parent is B1. Nature of the series: polymerase ribozyme fitness, log enrichment relative to wild type (log ratio); higher = more active; in vitro selection for triplet polymerase activity. The essentials: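 Mutant libraries were PCR-built and transcribed for each subunit of a heterodimeric triplet polymerase ribozyme and selected for one round in triplicate at −7 °C, frozen, before gel excision of extended constructs and streptavidin-bead capture. Input and output libraries were Illumina-sequenced, keeping genotypes with ≥10 input reads and ≥1 read per output. Fitness is a logarithmic ratio of genotype to wild-type enrichment, in base 2, using inverse-variance-weighted replicate averages.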
Regarding C53A G60A G69C, the “polymerase ribozyme fitness (log ratio)” value was -3.47.
For A50G C53U G61C A90G G113A, the “polymerase ribozyme fitness (log ratio)” value was -1.82.
Regarding A50U G117U, the “polymerase ribozyme fitness (log ratio)” value is -2.6.
With G52U C70U, the “polymerase ribozyme fitness (log ratio)” value was -1.49.
Take C53G G135U: the “polymerase ribozyme fitness (log ratio)” value was -1.51.
Next, C53U C72G C88U A105G: -2.32.
On to G52A G60U C104G, for which the “polymerase ribozyme fitness (log ratio)” value is -7.51.
As to A50U U59C, the “polymerase ribozyme fitness (log ratio)” value was -0.6.
G51A G113C G122U G135U: the “polymerase ribozyme fitness (log ratio)” value is -7.38.
On to A50U G58A U78C A103G U109G, for which the “polymerase ribozyme fitness (log ratio)” value is -5.98.
In the case of C53G G110U it was -1.58; in that of G52U A74G A84G A121U, 0.168; in that of G52A C101U, 0.00367.
Consider G51U U116C, for which the “polymerase ribozyme fitness (log ratio)” value is -4.25.
On to G51A C64A, for which the “polymerase ribozyme fitness (log ratio)” value was -6.96.
Next, C53G G71C C72U: -0.79; C53A A103U: -4.67.
Next, A50U C56A G69C C80G C104G C115G C123U U130C: -8.59.
Regarding A50U G117C G120C, the “polymerase ribozyme fitness (log ratio)” value was -5.84.
For G51U C82G A83U U87A, the “polymerase ribozyme fitness (log ratio)” value is -1.52.
On to C53U C102U C114A, for which the “polymerase ribozyme fitness (log ratio)” value was -4.76.
As for A50U G61U C86U, the “polymerase ribozyme fitness (log ratio)” value is -1.34.
With C53A U78C G113U, the “polymerase ribozyme fitness (log ratio)” value was -3.16.
G52U C53G U54C U78C C97U: the “polymerase ribozyme fitness (log ratio)” value is -1.14.
Regarding C53U C114A, the “polymerase ribozyme fitness (log ratio)” value is -1.2.
Take C53A G122U C123A: the “polymerase ribozyme fitness (log ratio)” value turned out to be 0.198.
Take A50C G113U: the “polymerase ribozyme fitness (log ratio)” value is -3.73.
Take C53A C62A G77C: the “polymerase ribozyme fitness (log ratio)” value is -0.326.
As for A50U U116A, the “polymerase ribozyme fitness (log ratio)” value is -4.25.
Turning to A50U G69A, the “polymerase ribozyme fitness (log ratio)” value is -3.65.
Next, C53G C70G: -2.85; C53G C97A G113A: -4.75.
In the case of G52U C114U U125A it was -4.04; in that of C53G U106A, -0.474; in that of G51U G71C, -5.37.
In the case of A50G C85A it was -2.34; in that of G51U G71U C79G, -2.26.
As to A50C U78G G110C G120A C124U, the “polymerase ribozyme fitness (log ratio)” value is -4.98.
Next, C53U C64A C72U A95C A105C G122U C123G: -6.4; C53G C64U G120A: 1.12.
For C53A C99A G117C A118G, the “polymerase ribozyme fitness (log ratio)” value is -7.29.
As for G51U A68U U106G G110U C124A, the “polymerase ribozyme fitness (log ratio)” value is -5.92.
Take G51U U59A: the “polymerase ribozyme fitness (log ratio)” value is -2.98.
As to C53G U125A, the “polymerase ribozyme fitness (log ratio)” value is -2.2.
In the case of G52A A74G G122A C124U it was 0.026; in that of C53A C72U C86U G110C, -3.78.
For the variant G52U G57U G61U A111U, the “polymerase ribozyme fitness (log ratio)” value was -6.65.
In the case of C53G G61C A66C it was -2.24; in that of C53G C101A, -1.03; in that of C53A G110U, -1.02.
Next, G52A U78C C86A C124G G128A: -1.71.
In the case of G51U U125A, the “polymerase ribozyme fitness (log ratio)” value is -3.77.
As to A50G C70U G113C, the “polymerase ribozyme fitness (log ratio)” value was -3.88.
As to C53A G60A U92G, the “polymerase ribozyme fitness (log ratio)” value is -2.9.
Consider A50U C94U, for which the “polymerase ribozyme fitness (log ratio)” value is -0.732.
On to C53A C72U C86G C115U, for which the “polymerase ribozyme fitness (log ratio)” value was -1.64.
With C53A G60A A121U, the “polymerase ribozyme fitness (log ratio)” value came out at 1.33.
For G52U C86G C89G G113C C114U A118G, the “polymerase ribozyme fitness (log ratio)” value was -4.62.
Next, G52C A119G C124U: 1.65; C53U C70U: -0.962.
In the case of C53A G71C C86A C124A it was -2.54; in that of C53A C86A C124A, 1.52.
Turning to G51U G117U, the “polymerase ribozyme fitness (log ratio)” value is -5.83.
As for G52C C72A, the “polymerase ribozyme fitness (log ratio)” value is -1.99.
Regarding G51C G52U C102A C124A, the “polymerase ribozyme fitness (log ratio)” value was -4.54.
Take G51A C86U U87A G113C: the “polymerase ribozyme fitness (log ratio)” value was -6.8.
With C53A C88A, the “polymerase ribozyme fitness (log ratio)” value is -0.22.
For the variant A50U G63U C104A, the “polymerase ribozyme fitness (log ratio)” value is -5.48.
For the variant G52U G69U A91C C104A, the “polymerase ribozyme fitness (log ratio)” value was -2.27.
In the case of A50C G110C it was -4.96.
In the case of A50U A84C U125A, the “polymerase ribozyme fitness (log ratio)” value was -1.62.
For the variant G52U G69C, the “polymerase ribozyme fitness (log ratio)” value was -1.54.
As for A50U C73A C76G U112A, the “polymerase ribozyme fitness (log ratio)” value was -3.53.
Turning to C53A G60C A103C U116C G120C, the “polymerase ribozyme fitness (log ratio)” value is -7.17.
As to A50U G69U U81C C114A, the “polymerase ribozyme fitness (log ratio)” value is -2.1.
Turning to C53A C76A C88A U92A, the “polymerase ribozyme fitness (log ratio)” value was -5.92.
In the case of G51A C62U U112A G113U, the “polymerase ribozyme fitness (log ratio)” value was -4.77.
In the case of C53A A83G A105C, the “polymerase ribozyme fitness (log ratio)” value was -3.47.
For the variant A50U G63C U78A U112C U116G A119C, the “polymerase ribozyme fitness (log ratio)” value is -6.63.
As to C53U C89A C115U A119G, the “polymerase ribozyme fitness (log ratio)” value worked out at 0.658.
Next, C53G G58A C115A: -0.718.
Consider C53A G69U G120C, for which the “polymerase ribozyme fitness (log ratio)” value turned out to be 1.96.
Next, G52A U55C C56A G57C: 0.195.
